{
  "source": "patent US12569569B2",
  "about": "“Nano-delivery system and therapeutic and diagnostic use thereof” (NANOCARRY THERAPEUTICS LTD., priority 2020, dated 2026)",
  "assay": "ICP-MS quantification of Au and Pt in mice brains after IV cisplatin+insulin-GNPs",
  "format": "in vivo, Male BALB/c mice",
  "details": "8 hours post-administration",
  "method": "Male BALB/c mice aged 6-7 weeks were administered intravenously through the tail vein with 200 μl of cisplatin+insulin-GNPs (approximately 0.1 mg of cisplatin according to ICP-MS measurement of Pt concentration) (n=3), or with equivalent dose of free Cisplatin (100 μl, 1 mg/ml) (n=3). Mice were sacrificed 8 hours post-administration. The mice underwent perfusion using 20 ml saline to remove all the particles residing within the blood vessels.\nAfter sacrifice and perfusion, mice brains were extracted and weighted followed by ICP-MS analysis to quantify the amounts of Au and Pt within the brain.",
  "data": [
    {"substance": "cisplatin+insulin-GNPs: 20 nm GNPs with mPEG-SH 5 kDa, PEG 1 kDa conjugated to cisplatin, PEG 5 kDa conjugated to insulin (60:20:20)", "values": [
      {"measurement": "Au and Pt within the brain (ICP-MS)", "setting": "IV 200 μl, after perfusion", "result": "both gold and platin were found within the brains"},
      {"measurement": "Amount of Pt within the brain compared to equivalent dose of free cisplatin", "setting": "IV", "result": "significantly higher"}
    ]}
  ]
}
